The values that follow come from publication PMC2396876 (The EMBO Journal, 2008).

Several values for one entry are separate records, joined by “and”; a condition that tells them apart may be missing. Equal values may be shown once.

Series [1] addresses UspA1^(527–665) A568Q (Moraxella catarrhalis (strain MX2)). Put plainly: western blot of oligomers. Background: Immunoblotting shows a protein as a band on a membrane.
The target of series [2] is UspA1^(527–665) A590Q (Moraxella catarrhalis (strain MX2)). The series can be described thus: western blot of oligomers.
Series [3] deals with UspA1^(527–665) M586A (Moraxella catarrhalis (strain MX2)). Put plainly: western blot of oligomers.
The target of series [4] is UspA1^(527–665), recombinant fragment of the Moraxella catarrhalis MX2 adhesin UspA1 (Moraxella catarrhalis (strain MX2)). The series can be described thus: ITC. A general note: In ITC the heat of successive injections is recorded.
Series [5] shares this target. Put plainly: AUC.
Series [6] has as its target N‐CEACAM1, the N‐terminal domain of human carcinoembryonic antigen‐related cell adhesion molecule 1 (human). The series can be described thus: AUC.
The target of series [7] is UspA1^(527–665), recombinant fragment of the Moraxella catarrhalis MX2 adhesin UspA1 (Moraxella catarrhalis (strain MX2)). Put plainly: crystal structure.
Series [8] deals with UspA1^(527–665) L583A (Moraxella catarrhalis (strain MX2)). Put plainly: western blot of oligomers.
Series [9] has as its target UspA1^(527–665) M586A/A588Q (Moraxella catarrhalis (strain MX2)) (UniProt Q9XD56). The series can be described thus: far-Western, overlay or dot blot.
The target of series [10] is UspA1^(527–665) M586A (Moraxella catarrhalis (strain MX2)). Put plainly: far-Western, overlay or dot blot.
The target of series [11] is UspA1^(527–665) A588Q (Moraxella catarrhalis (strain MX2)). Put plainly: western blot of oligomers.
Series [12] concerns the molecule itself. The series can be described thus: western blot of oligomers.

Regarding “UspA1^(527–665) A568Q (domain or fragment)”, the stoichiometry N (chains in the oligomer) in series [1] is 3.

For “UspA1^(527–665) A590Q (domain or fragment)”, the stoichiometry N (chains in the oligomer) in [2] turned out to be 3.

In series [3], “UspA1^(527–665) M586A (domain or fragment)” returned a stoichiometry N (chains in the oligomer) of 3.

A word on the Kd: it is the free concentration of one partner at which half of the binding sites on the other are occupied at equilibrium, for simple one-to-one binding. Turning to “N‐CEACAM1, the N‐terminal domain of human carcinoembryonic antigen‐related cell adhesion molecule 1 (domain or fragment)”, in series [4], the Kd came out at 35 nM; the stoichiometry N (N‐CEACAM1 per UspA1^(527–665) trimer) was 2.1 and 1.9. For the same molecule, the stoichiometry N (N‐CEACAM1 per UspA1^(527–665) trimer) in series [5] is 2. The stoichiometry N (chains in the oligomer) in series [6] was found to be 2.

In the case of “UspA1^(527–665), recombinant fragment of the Moraxella catarrhalis MX2 adhesin UspA1 (domain or fragment)”, the stoichiometry N (chains in the oligomer) in [7] and in series [5] was 3 in each case.

“UspA1^(527–665) L583A (domain or fragment)”: in [8], the stoichiometry N (chains in the oligomer) was 3.

As for “soluble CEACAM1‐Fc receptor (from UniProt P13688 35-428) (Fc fusion)”, the decrease in CEACAM1 binding (densitometry, against native UspA1^(527–665)) came out at 90.4% in series [9] and 14.8% in series [10].

As for “UspA1^(527–665) A588Q (domain or fragment)”, the stoichiometry N (chains in the oligomer) in series [11] is 3.

B1: UspA1^(527–665) M586A/A588Q (domain or fragment, Moraxella catarrhalis (strain MX2), UniProt Q9XD56 527-665, looked up)
chain: ASSANTDRIATAELGIAENKKDAQIAKAQANENKDGIAKNQADIQLHDKKITNLGILHSAVQRAVGNNTQGVATNKADIAKNQADIANNIKNIYELAQQQDQHSSDIKTLAKVSAANTDRIAKNKAEADASFETLTKNQ
As a reminder, the stoichiometry N is a count of units in the complex or per binding partner. With B1, the “stoichiometry N” value in [12] is 3 chains in the oligomer.
